Our source for the binding result and Kd values is US20190381086A1 (Scripps Research, published 2019).

One test addresses T1, ABD (V541-E685) of GlyRS (human, UniProt P41250 595-739).
T1 construct: Cloned, expressed and purified in a similar way as the full-length GlyRS; also called ABD GlyRS; ABD domain alone
T1 sequence: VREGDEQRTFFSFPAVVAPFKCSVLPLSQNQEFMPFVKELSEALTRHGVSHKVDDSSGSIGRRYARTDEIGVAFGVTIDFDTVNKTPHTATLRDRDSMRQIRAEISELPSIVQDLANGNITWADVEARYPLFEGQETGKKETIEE
Description: GST pull-down on glutathione beads, blot anti-GlyRS.

Test [1] addresses T2, N-terminal GST-tagged GlyRS (human, UniProt P41250 55-739).
T2 construct: also called GST-GlyRS; immobilized GlyRS; not shown: N-terminal GST tag from a modified pET28a vector
T2 sequence: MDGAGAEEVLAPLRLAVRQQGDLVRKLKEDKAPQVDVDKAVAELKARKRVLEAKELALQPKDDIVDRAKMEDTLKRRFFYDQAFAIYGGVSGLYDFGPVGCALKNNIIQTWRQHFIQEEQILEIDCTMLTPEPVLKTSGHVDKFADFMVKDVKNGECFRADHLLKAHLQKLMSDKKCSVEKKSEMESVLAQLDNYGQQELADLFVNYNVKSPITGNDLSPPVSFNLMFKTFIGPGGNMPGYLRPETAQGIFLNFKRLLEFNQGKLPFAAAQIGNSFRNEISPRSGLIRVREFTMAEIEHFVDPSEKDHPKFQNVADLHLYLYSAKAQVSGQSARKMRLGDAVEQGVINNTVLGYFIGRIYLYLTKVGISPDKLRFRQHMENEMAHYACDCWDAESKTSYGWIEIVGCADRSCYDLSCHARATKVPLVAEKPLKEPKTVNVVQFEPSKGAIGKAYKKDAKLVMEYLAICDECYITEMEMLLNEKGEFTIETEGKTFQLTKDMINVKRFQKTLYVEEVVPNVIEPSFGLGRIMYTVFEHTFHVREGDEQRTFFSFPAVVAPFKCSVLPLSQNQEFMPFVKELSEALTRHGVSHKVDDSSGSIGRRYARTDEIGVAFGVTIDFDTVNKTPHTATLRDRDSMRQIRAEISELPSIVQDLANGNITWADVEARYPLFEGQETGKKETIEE
Description: biolayer interferometry (Octet), GlyRS immobilized, 30°C.

Test [2] deals with T3, E1 for neddylation, APPBP1/UBA3 heterodimer (UniProt Q13564 1-534; Q8TBC4 22-463).
T3 construct: GST-tagged or untagged preparations are mentioned; also called GST-APPBP1/UBA3; NAE; not shown: GST tag on APPBP1 (GST-APPBP1/UBA3)
T3 sequence (looked up) 1: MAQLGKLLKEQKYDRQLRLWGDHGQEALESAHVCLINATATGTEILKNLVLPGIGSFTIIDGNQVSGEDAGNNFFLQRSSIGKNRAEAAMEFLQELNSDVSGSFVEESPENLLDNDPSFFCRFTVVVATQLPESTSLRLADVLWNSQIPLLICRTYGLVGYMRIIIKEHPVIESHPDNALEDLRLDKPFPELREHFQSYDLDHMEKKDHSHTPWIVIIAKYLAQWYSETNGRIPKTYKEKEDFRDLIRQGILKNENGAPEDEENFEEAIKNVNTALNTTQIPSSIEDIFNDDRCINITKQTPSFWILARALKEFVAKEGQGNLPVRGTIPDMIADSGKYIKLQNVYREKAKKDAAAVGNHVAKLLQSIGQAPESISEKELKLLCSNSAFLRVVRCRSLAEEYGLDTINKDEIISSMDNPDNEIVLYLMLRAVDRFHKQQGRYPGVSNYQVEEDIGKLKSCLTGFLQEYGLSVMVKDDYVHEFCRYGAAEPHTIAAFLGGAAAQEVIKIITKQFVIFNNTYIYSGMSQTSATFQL
T3 sequence (looked up) 2: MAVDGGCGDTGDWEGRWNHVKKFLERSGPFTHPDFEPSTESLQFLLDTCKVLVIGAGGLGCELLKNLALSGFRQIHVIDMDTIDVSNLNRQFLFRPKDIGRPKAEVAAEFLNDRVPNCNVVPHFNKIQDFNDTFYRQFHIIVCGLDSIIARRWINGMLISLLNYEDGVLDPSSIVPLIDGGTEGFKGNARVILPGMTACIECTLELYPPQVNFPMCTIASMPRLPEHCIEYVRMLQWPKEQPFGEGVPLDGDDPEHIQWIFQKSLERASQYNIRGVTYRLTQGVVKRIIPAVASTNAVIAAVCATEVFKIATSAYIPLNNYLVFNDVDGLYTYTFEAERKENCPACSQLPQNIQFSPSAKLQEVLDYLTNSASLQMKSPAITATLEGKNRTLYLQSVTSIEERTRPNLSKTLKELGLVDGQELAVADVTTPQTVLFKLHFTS
In words: biolayer interferometry, E1 (APPBP1/UBA3) immobilized, analyte 62.5-500 nM. In general terms: BLI is a label-free optical method that tracks binding on a fibre tip over time.

In the next test the target is T4, ubiquitin (UniProt P0CG48 1-76).
T4 construct: Bought protein
Description: His-tag pull-down.

B1: GST-Ubc12 (enzyme)
chain: MIKLFSLKQQKKEEESAGGTKGSSKKASAAQLRIQKDINELNLPKTCDISFSDPDDLLNFKLVICPDEGFYKSGKFVFSFKVGQGYPHDPPKVKCETMVYHPNIDLEGNVCLNILREDWKPVLTINSIIYGLQYLFLEPNPEDPLNKEAAEVLQNNRRLFEQNVQRSMRGGYIGSTYFERCLK
modifications: N-terminal GST fusion, not carried in the letters
notes: Bait on glutathione beads in the GST pull-down; Band between 42 and 57 kDa in the input blot; also called GST-tagged Ubc12; not shown: GST tag and the linker to Ubc12
As for B1, the binding result in the test with ABD (V541-E685) of GlyRS is given as “no binding”.

B2: Ubc12 (enzyme, UniProt P61081 1-183, looked up)
chain: MIKLFSLKQQKKEEESAGGTKGSSKKASAAQLRIQKDINELNLPKTCDISFSDPDDLLNFKLVICPDEGFYKSGKFVFSFKVGQGYPHDPPKVKCETMVYHPNIDLEGNVCLNILREDWKPVLTINSIIYGLQYLFLEPNPEDPLNKEAAEVLQNNRRLFEQNVQRSMRGGYIGSTYFERCLK
notes: GST-tagged or untagged preparations are mentioned; also called Ubc12 alone; apo Ubc12
What is called Kd is the free concentration of one partner at which half of the binding sites on the other are occupied at equilibrium, for simple one-to-one binding. A lower Kd goes with a tighter complex. Take B2: binding in test [1] was put at a Kd of 488 nM.

B3: full-length human GlyRS (enzyme)
chain: MDGAGAEEVLAPLRLAVRQQGDLVRKLKEDKAPQVDVDKAVAELKARKRVLEAKELALQPKDDIVDRAKMEDTLKRRFFYDQAFAIYGGVSGLYDFGPVGCALKNNIIQTWRQHFIQEEQILEIDCTMLTPEPVLKTSGHVDKFADFMVKDVKNGECFRADHLLKAHLQKLMSDKKCSVEKKSEMESVLAQLDNYGQQELADLFVNYNVKSPITGNDLSPPVSFNLMFKTFIGPGGNMPGYLRPETAQGIFLNFKRLLEFNQGKLPFAAAQIGNSFRNEISPRSGLIRVREFTMAEIEHFVDPSEKDHPKFQNVADLHLYLYSAKAQVSGQSARKMRLGDAVEQGVINNTVLGYFIGRIYLYLTKVGISPDKLRFRQHMENEMAHYACDCWDAESKTSYGWIEIVGCADRSCYDLSCHARATKVPLVAEKPLKEPKTVNVVQFEPSKGAIGKAYKKDAKLVMEYLAICDECYITEMEMLLNEKGEFTIETEGKTFQLTKDMINVKRFQKTLYVEEVVPNVIEPSFGLGRIMYTVFEHTFHVREGDEQRTFFSFPAVVAPFKCSVLPLSQNQEFMPFVKELSEALTRHGVSHKVDDSSGSIGRRYARTDEIGVAFGVTIDFDTVNKTPHTATLRDRDSMRQIRAEISELPSIVQDLANGNITWADVEARYPLFEGQETGKKETIEE
notes: A tag-free preparation is described (N-terminal His-SUMO tag removed by Ulp1); the His-tagged preparation may have been used in some of those; also called full-length GlyRS; tag-free full-length GlyRS
Molecule B3 had a dissociation constant (Kd) in test [2] of 159 nM.

B4: His-tagged full-length human GlyRS (glycyl-tRNA synthetase) (enzyme)
chain: MDGAGAEEVLAPLRLAVRQQGDLVRKLKEDKAPQVDVDKAVAELKARKRVLEAKELALQPKDDIVDRAKMEDTLKRRFFYDQAFAIYGGVSGLYDFGPVGCALKNNIIQTWRQHFIQEEQILEIDCTMLTPEPVLKTSGHVDKFADFMVKDVKNGECFRADHLLKAHLQKLMSDKKCSVEKKSEMESVLAQLDNYGQQELADLFVNYNVKSPITGNDLSPPVSFNLMFKTFIGPGGNMPGYLRPETAQGIFLNFKRLLEFNQGKLPFAAAQIGNSFRNEISPRSGLIRVREFTMAEIEHFVDPSEKDHPKFQNVADLHLYLYSAKAQVSGQSARKMRLGDAVEQGVINNTVLGYFIGRIYLYLTKVGISPDKLRFRQHMENEMAHYACDCWDAESKTSYGWIEIVGCADRSCYDLSCHARATKVPLVAEKPLKEPKTVNVVQFEPSKGAIGKAYKKDAKLVMEYLAICDECYITEMEMLLNEKGEFTIETEGKTFQLTKDMINVKRFQKTLYVEEVVPNVIEPSFGLGRIMYTVFEHTFHVREGDEQRTFFSFPAVVAPFKCSVLPLSQNQEFMPFVKELSEALTRHGVSHKVDDSSGSIGRRYARTDEIGVAFGVTIDFDTVNKTPHTATLRDRDSMRQIRAEISELPSIVQDLANGNITWADVEARYPLFEGQETGKKETIEE
notes: also called His-tagged GlyRS; purified human GlyRS protein; not shown: His tag
With B4, in the test with ubiquitin, the binding result is listed as “no binding”.
